Assay results from US7001748.
Each block holds one substance with its values, some of them ahead of it.

What was measured:
[1] = molecular target: M2(4) (derivative of M2 containing the C-terminal linker of DEBS module 4; plasmid pST179) (UniProt Q03133); experiment: fit of the rate of tetraketide formation against (5)M3+TE concentration (0.5-5 µM) at fixed 0.5 µM M2(4); kinetic saturation curve
[2] = molecular target: M2 (module 2 of DEBS with the natural C-terminal linker for module 2; plasmid pBP19) (UniProt Q03133); experiment: fit of the rate of tetraketide formation against M3+TE concentration (0.4-4 µM) at fixed 1.0 µM M2; kinetic saturation curve
[3] = molecular target: (5)M5+TE (M5+TE; plasmid pRSG46) (UniProt Q03133); experiment: cell-based or functional assay

Kd [1]: 2.1 µM
Substance: (5)M3+TE (derivative of M3+TE where the natural N-terminal linker has been replaced with the N-terminal linker of module 5 of DEBS; plasmid pST132) (from UniProt Q03133 2-41; Q03132 33-1467; Q03133 2960-3166) (enzyme)

Kd [2]: 1.1 µM
Substance: M3+TE (module 3 of DEBS with its own N-terminal linker and with the thioesterase fused to the C-terminus; plasmid pRSG34) (from UniProt Q03132 33-1467; Q03133 2960-3166) (enzyme)

maximal rate increase in the elongation of 4a versus 2a [3]: > 40 fold
Substance: acyl-ACP4(4) adduct 4a ((2S,3R)-diketide on ACP4(4)) (from UniProt Q03132 3398-3567)
